Measured values published in patent publication US20240173398A1 (MAX PLANCK GESELLSCHAFT ZUR F RDERUNG DER WISSENSCHAFTEN E V, published 2024).

Target: SARS-CoV-2 RBD (correctly folded, co-expressed with fold-promoting VHH in E. coli) (SARS-CoV-2, UniProt P0DTC2 330-527)
Test: co-expression in E. coli, co-purification and gel filtration

Binder	binding result
VHH antibody Re11H04 (VHH) VHH: QVQLVESGGGLVQPGGSLRLSCAASGFTLDYYTIAWFRQAPGKEREGVSCISGNDGSTYYADSVKGRFTISRDNAKNTVYLQMNSLKPEDTAVYYCAADRGESYYPFRPSEYHYWGQGTQVTVSS	binds
VHH antibody Re9G12 (VHH) VHH: QVQLVESGGGLVQAGGSLRLSCAASGRTFSSYVMGWFRQAPGKEREFVAHISWSGDSTYYADSVKGRFTIFRDNAKNTAYLQMNSLKPEDTAVYYCAADRGASYYYTWASEYNYWGQGTQVTVSS	binds
VHH antibody Re7E02 (VHH) VHH: QVQLVESGGGLVQAGGSLRLSCAASGFTLDYYAIGWFRQAPGKEREGVSYIRSSDGTTYYADSVKGRFTISRDNAKNTVYLQMNSLKPEDTAVYYCAADEAYYSELGWESPWGWSYWGQGTQVTVSS	binds
VHH antibody Re6B07 (VHH) VHH: QVQLVESGGGLVQPGGSLRLSCAASGFTLDYYAIGWFRQAPGKEREGVSYIRSSDGTTYYADSVKGRFTISRDNAKNTVYLQMNSLKPEDTAVYYCAADEAYYSELGWESPWGWSYWGQGTRVTVSS	binds
VHH antibody Re9D02 (VHH) VHH: QVQLVESGGGLVQAGGSLRLSCAASGRTFSNYAMGWFRQAPGKEREFVAAISWGGDTTYYADSLKGRFTISRDNAKNTVYLQMNSLKPEDTAVYYCAADRGLSYYYDRVTEYDYWGQGTQVTVSS	binds
VHH antibody Re6A11 (VHH) VHH: QVQLVESGGGLVQAGGSLRLSCAASGRTFSNDALGWFRQAPRKEREFVAAINWNSGTYYADSVKGRFTISRDNAKNTVYLQMNSLKPEDTAVYSCAAASDYGLPREDFLYDYWGQGTLVTVSS	binds
VHH antibody Re9F06 (VHH) VHH: QVQLVESGGGLVQAGGSLRLSCAASGRTFSNDALGWFRQAPRKEREFVAAINWNSGTYYADSVKGRFTISRDNAKNTVYLQMNSLKPEDTAVYSCAAASDYGLPREDFLYDYWGQGTQVTVSS	binds
VHH antibody Re9C07 (VHH) VHH: QVQLVESGGGLVQAGGSLRLSCAASGRTFSRYAMGWFRQAPGKEREFVAAITWNADTTYYADSVKGRFTISRDNAKNTVYLQMNSLKPEDTAVYYCAAGGNHYYSRSYYSSLEYDHWGQGTQVTVSS	binds
